The text below walks through data of patent publication US20040131585A1.

The test has as its target human CXCR4 on intravenously injected human CD34+ angioblasts (human) (UniProt P61073). Put plainly: cell-based or functional assay.
UniProt P61073, sequence (P61073 whole entry): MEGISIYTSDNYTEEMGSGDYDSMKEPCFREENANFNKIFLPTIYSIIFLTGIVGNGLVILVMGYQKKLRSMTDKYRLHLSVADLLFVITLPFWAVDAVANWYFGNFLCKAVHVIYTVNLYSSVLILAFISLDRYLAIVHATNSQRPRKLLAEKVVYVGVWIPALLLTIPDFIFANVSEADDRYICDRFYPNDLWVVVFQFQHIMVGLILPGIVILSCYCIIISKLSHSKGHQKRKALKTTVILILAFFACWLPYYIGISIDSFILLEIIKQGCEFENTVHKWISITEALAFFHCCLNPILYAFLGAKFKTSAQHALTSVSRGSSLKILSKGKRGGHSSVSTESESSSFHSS

Regarding “rat SDF-1 (stromal-derived factor-1) (ligand)”, the increase in trafficking of CD34+ human angioblasts to ischemic rat myocardium, with co-administered mAb against human CXCR4 was determined as 24% and the increase in trafficking of CD34+ human angioblasts to ischemic rat myocardium, with co-administered mAb against rat SDF-1 was determined as 17%.
